# Assay results taken from article PMC4263443.
# How the values were obtained:
# [1] = target: recombinant full-length S5a (human) (UniProt P55036); experiment: ITC
# [2] = target: recombinant S5aΔVWA (human); experiment: ITC
# Sequence of UniProt P55036 (P55036 whole entry): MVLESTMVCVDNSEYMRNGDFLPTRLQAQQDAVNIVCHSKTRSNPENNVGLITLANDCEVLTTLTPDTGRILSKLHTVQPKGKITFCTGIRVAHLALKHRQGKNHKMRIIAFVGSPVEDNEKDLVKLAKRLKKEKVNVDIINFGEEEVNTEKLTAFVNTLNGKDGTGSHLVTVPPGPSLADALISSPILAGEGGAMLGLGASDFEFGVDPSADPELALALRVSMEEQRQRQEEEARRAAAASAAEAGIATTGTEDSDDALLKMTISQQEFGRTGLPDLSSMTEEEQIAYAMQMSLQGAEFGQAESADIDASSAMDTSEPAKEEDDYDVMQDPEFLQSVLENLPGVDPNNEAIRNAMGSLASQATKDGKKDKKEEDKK
Kd [1] [µM],Kd [2] [µM],Substance
112,–,monoubiquitin (from UniProt P0CG47 1-76) (natural protein; other documents disagree on this pair)
–,84,monoubiquitin (from UniProt P0CG47 1-76) (natural protein)
